Laboratory results published in patent US20200247855A1 (published 2020).

What was measured:
Test in all cases: BLI
[1] = biological target: T1, CCL21_HUMAN (human, UniProt O00585 24-134)
T1 chain: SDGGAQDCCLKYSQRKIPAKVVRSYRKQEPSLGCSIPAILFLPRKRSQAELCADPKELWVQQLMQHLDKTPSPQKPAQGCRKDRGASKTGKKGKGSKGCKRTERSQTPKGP

[2] = biological target: T2, CCL5_HUMAN (human, UniProt P13501 24-91)
T2 chain: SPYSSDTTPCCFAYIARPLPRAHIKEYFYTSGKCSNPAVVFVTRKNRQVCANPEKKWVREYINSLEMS

[3] = biological target: T3, CCL27_HUMAN (human, UniProt Q9Y4X3 25-112)
T3 chain: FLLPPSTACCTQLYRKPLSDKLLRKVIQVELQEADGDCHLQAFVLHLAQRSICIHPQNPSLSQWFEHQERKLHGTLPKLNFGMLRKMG

[4] = biological target: T4, CCL3L1_HUMAN (human, UniProt P16619 24-93)
T4 chain: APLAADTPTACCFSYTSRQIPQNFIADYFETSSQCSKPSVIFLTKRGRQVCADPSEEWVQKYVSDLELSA

[5] = biological target: T5, CCL14_HUMAN (human, UniProt Q16627 22-93)
T5 chain: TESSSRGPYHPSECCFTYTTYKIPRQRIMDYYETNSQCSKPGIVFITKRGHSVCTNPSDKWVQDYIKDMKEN

[6] = biological target: T6, CCL17_HUMAN (human, UniProt Q92583 24-94)
T6 chain: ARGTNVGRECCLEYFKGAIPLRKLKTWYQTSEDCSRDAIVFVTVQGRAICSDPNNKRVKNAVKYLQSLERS

[7] = biological target: T7, CCL18_HUMAN (human, UniProt P55774 21-89)
T7 chain: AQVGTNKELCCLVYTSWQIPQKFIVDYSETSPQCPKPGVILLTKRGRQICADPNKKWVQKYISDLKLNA

[8] = biological target: T8, CCL3_HUMAN (human, UniProt P10147 24-92)
T8 chain: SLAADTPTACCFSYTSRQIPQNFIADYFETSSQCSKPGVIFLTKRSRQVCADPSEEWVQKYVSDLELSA

[9] = biological target: CCL7_HUMAN (human, UniProt P80098 24-99)
CCL7_HUMAN, sequence (P80098 24-99): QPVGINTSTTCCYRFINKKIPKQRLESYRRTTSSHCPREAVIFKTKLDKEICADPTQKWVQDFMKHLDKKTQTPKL

[10] = biological target: T9, CCL4_HUMAN (human, UniProt P13236 24-92)
T9 chain: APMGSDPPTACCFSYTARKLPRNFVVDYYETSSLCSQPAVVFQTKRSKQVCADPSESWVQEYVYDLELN

[11] = biological target: T10, CCL19_HUMAN (human, UniProt Q99731 22-98)
T10 chain: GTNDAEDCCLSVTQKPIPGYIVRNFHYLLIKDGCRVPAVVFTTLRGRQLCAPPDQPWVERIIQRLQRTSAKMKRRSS

[12] = biological target: T11, CCL24_HUMAN (human, UniProt O00175 27-104)
T11 chain: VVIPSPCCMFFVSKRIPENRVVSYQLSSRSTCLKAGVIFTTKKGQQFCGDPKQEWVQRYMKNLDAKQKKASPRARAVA

[13] = biological target: T12, CCL23_HUMAN (human, UniProt P55773 22-120)
T12 chain: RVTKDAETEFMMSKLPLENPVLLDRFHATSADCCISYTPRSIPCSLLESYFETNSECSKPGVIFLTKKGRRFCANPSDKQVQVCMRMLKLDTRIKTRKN

[14] = biological target: CCL13_HUMAN (human, UniProt Q99616 24-98)
CCL13_HUMAN, sequence (Q99616 24-98): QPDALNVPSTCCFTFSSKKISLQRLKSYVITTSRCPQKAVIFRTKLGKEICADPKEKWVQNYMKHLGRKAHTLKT

[15] = biological target: T13, CCL15_HUMAN (human, UniProt Q16663 22-113)
T13 chain: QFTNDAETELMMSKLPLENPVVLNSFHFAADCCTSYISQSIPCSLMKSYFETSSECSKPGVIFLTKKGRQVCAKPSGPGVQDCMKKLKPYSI

[16] = biological target: CCL11_HUMAN (human, UniProt P51671 24-97)
CCL11_HUMAN, sequence (P51671 24-97): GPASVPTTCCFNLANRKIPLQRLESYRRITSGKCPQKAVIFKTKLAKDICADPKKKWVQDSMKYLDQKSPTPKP

[17] = biological target: T14, CCL8_HUMAN (human, UniProt P80075 24-99)
T14 chain: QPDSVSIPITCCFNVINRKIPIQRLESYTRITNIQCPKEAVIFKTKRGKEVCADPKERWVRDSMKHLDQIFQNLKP

[18] = biological target: CXCL8_HUMAN (human, UniProt P10145 28-99)
CXCL8_HUMAN, sequence (P10145 28-99): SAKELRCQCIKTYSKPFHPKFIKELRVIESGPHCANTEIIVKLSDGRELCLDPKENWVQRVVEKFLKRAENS

[19] = biological target: CXCL1_HUMAN (human, UniProt P09341 35-107)
CXCL1_HUMAN, sequence (P09341 35-107): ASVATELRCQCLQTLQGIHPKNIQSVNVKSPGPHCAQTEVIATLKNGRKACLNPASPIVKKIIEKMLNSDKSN

B1: P1243:G4S:P1156 (designed binder)
chain: RNHTEDNSTEYYDYEEARCACPARHLNNTNGTVLKLLGCHYFCNGTLCTAPDGYPCYNLTAQQVRTLTTYPNTSCAVGVCMKGTCVKNGTMEQCFKTPGGGGSADDDNELFTVQYCGMNCTKDEGGTWTGCTGKKEGCKCYHESGKNYGLCLSTEYTDFSQYGNPSDSEIEAAKPKRSDTLSH
Q: With B1 as the binder, how does the Kd [1] read?
A: 53.8 nM

Q: What about the Kd [2] of the same binder?
A: 8.95 nM

Q: And the Kd [3]?
A: 24.4 nM

Q: What about the Kd [4] of the same binder?
A: 4.06 nM

Q: What about the Kd [5] of the same binder?
A: 1.99 nM

Q: What about the Kd [6] of the same binder?
A: 3.51 nM

Q: And the Kd [7]?
A: 0.543 nM

Q: And the Kd [8]?
A: 16.4 nM

Q: What about the Kd [9] of the same binder?
A: 49 nM

Q: And the Kd [10]?
A: 19.4 nM

Q: What about the Kd [11] of the same binder?
A: 2.92 nM

Q: What about the Kd [12] of the same binder?
A: 16.4 nM

Q: And the Kd [13]?
A: 0.632 nM

Q: What about the Kd [14] of the same binder?
A: 1.33 nM

Q: What about the Kd [15] of the same binder?
A: 8.71 nM

Q: And the Kd [16]?
A: 19.7 nM

Q: And the Kd [17]?
A: 381 nM

Q: What about the Kd [18] of the same binder?
A: 7.63 nM

Q: What about the Kd [19] of the same binder?
A: 17.4 nM
